Laboratory results published in IntAct's records for PubMed 22153509.

B1: Interleukin-5 receptor subunit alpha (Homo sapiens), Q01344-2 (parent)
chain: MIIVAHVLLILLGATEILQADLLPDEKISLLPPVNFTIKVTGLAQVLLQWKPNPDQEQRNVNLEYQVKINAPKEDDYETRITESKCVTILHKGFSASVRTILQNDHSLLASSWASAELHAPPGSPGTSIVNLTCTTNTTEDNYSRLRSYQVSLHCTWLVGTDAPEDTQYFLYYRYGSWTEECQEYSKDTLGRNIACWFPRTFILSKGRDWLAVLVNGSSKHSAIRPFDQLFALHAIDQINPPLNVTAEIEGTRLSIQWEKPVSAFPIHCFDYEVKIHNTRNGYLQIEKLMTNAFISIIDDLSKYDVQVRAAVSSMCREAGLWSEWSQPIYVGFSR

Variants of: B1
Details: with il5_human IL5, P05113
il5_human IL5, P05113, sequence (P05113 whole entry): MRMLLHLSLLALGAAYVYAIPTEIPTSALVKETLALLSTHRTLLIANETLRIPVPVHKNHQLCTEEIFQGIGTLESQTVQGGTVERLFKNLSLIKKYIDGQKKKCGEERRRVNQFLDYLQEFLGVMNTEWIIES

Variant | effect of a mutation on the interaction
L43A | disrupting interaction
D75E | decreasing interaction
Y77A | decreasing interaction
E78P | disrupting interaction
R80A | decreasing interaction
S84A | decreasing interaction
I89A | decreasing interaction
W178A | decreasing interaction
I203A | decreasing interaction
R208K | decreasing interaction
D228A | disrupting interaction
M315A | decreasing interaction
